From patent US20080201790A1, “Method and product for regulating cell responsiveness to external signals” (priority 1993, published 2008)

Tests used:
GST-Ras^V12 = assay: Binding of COS cell-expressed MEKK1 proteins to GST-Ras^V12 agarose; settings: COS cell lysates, immunoblot
Source text: COS cells were transiently transfected by the DEAE-dextran protocol as generally described in Example 3. Cos cells were transfected with: (1) p-MEKK1 containing a nucleic acid molecule encoding MEKK1 as described in Lange-Carter et al. (Science 260:315-319, […]); (2) p-MEKKNH2 containing a nucleic acid molecule that encodes a 858 base pair Pvull(682)-Ncol(1541) restriction digest fragment of the amino terminus of MEKK1 ligated into pCMV5; (3) p-MEKKCOOH containing a nucleic acid molecule that encodes a 1435 base pair Ncol(1541)-Sspl(2976) restriction digest fragment that includes the entire kinase domain of MEKK1 ligated into pCMV5; (4) pCMV5 without insert; or (5) p-C4Raf containing a nucleic acid molecule that encodes the amino terminus of Raf-1 ligated into pCMV5. COS cells expressing the various MEKK1 proteins were […] COS cells expressing the various MEKK1 proteins were lysed in EB (1% Triton X-100, 10 mM Tris HCl [pH 7.4], 5 mM EDTA, 50 mM NaCl, 50 mM NaF, 0.1% bovine serum albumin, 0.2 U/ml aprotinin, 1 mM phenylmethylsulfonyl fluoride and 2 mM Na3 VO4). The lysates were separated into two equal parts for separate binding reactions. Half of the lysate was incubated with GST agarose (1.5 μg) while half of the lysate was incubated with GST-Ras^V12 agarose (1.5 μg) (purchased from UBI) for 1 hr at 4° C. The GST-Ras^V12 was preincubated at 30° C. for 30 min with 1 mM nucleotide (GDP or GTPγS). The nucleotide binding reaction was stopped by adding MgCl2 to a final concentration of 20 mM. After the 1 hr binding reaction the agarose beads were pelleted at 2000 rpm for 2 min and washed 3 times with PBS+1.0% Triton X-100. The washed agarose beads were boiled in Laemmli SDS sample buffer and the proteins resolved by SDS polyacrylamide gel electrophoresis. Proteins were transferred onto nitrocellulose for immunoblotting with antibodies specific for an NH2 terminal fusion protein (described in Example 1) or a COOH terminal peptide (described in Example 1).

[1] = system: p42 and p44 forms of MAPK; assay: Phosphorylation of p42 and p44 MAPK in COS cells transfected with MEKK 1 or MEKK 3; type: cell-based; settings: forty-eight hours after transfection
Description: (§1) COS cells were transfected with the expression plasmid pCVM5 ligated to cDNA clones encoding either MEKK 1 or MEKK 3 protein, or a control pCVM5 plasmid lacking MEKK cDNA inserts. Forty-eight hours after transfection, the COS cells were lysed and the lysate fractionated on a Mono Q FPLC column using conditions described in Example 4. The fractions were analyzed for tyrosine phosphorylation of MAP kinase-like enzymes using the kinase assay described in Example 4.

MEK-1 = assay: Phosphorylation of catalytically inactive MEK-1 by Mono Q fractions of MEKK-transfected COS cells; type: biochemical, mouse
Description: A cDNA encoding MEK-1 was obtained from mouse B cell cDNA templates with the polymerase chain reaction and oligodeoxynucleotide primers corresponding to portions of the 5′ coding region and 3′ untranslated region of MEK-1. […] Lysates from COS cells transfected with MEKK or mock-transfected (control) were subjected to FPLC on a Mono Q column as described above. […] Reactions were stopped by the addition of 5×SDS sample buffer (10 μl), 1×SDS buffer contains 2 percent SDS, 5 percent glycerol, 62.5 mM tris-HCl (pH 6.8), 5 percent β-mercaptoethanol, and 0.001 percent bromophenol blue. The samples were boiled for 3 minutes and subjected to SDS-PAGE and autoradiography.
Phosphorylation of kinase MEK-1 and MEKK was visable after 5 minutes and maximal after about 20 minutes. The time-dependent increase in MEKK phosphorylation correlated with a decreased mobility of the MEKK protein during SDS-PAGE. […] The slowly migrating species of MEKK were also detected by immunoblotting. Thus, expression of MEKK appears to activate MAPK by activating MEK.

p38 MAPK = assay: Tyrosine phosphorylation of p38 MAPK in COS cells transfected with MEKK 1 or MEKK 3; type: cell-based; settings: forty-eight hours after transfection
Description: as §1

MAPK = MAPK activity in COS cells transfected with MEKK or Raf (Mono Q FPLC fractions); type: cell-based; settings: overexpression in COS1 cells, deprived of serum, no added growth factor
Description: COS cells in 100-mm culture dishes were transfected with either the pCVMV5 expression vector alone (1 μg: control) or the pCVMV5 MEKK construct (1 μg: MEKK). After 48 hours, the cells were placed in serum-free medium containing bovine serum albumin (0.1 percent) for 16 to 18 hours to induce quiescence. […] After centrifugation for 10 minutes at maximum speed in a microfuge, COS cell lysates containing 0.5 to 1 mg of soluble protein were subjected to FPLC on a MONO Q column, and eluted fractions were assayed for MAPK activity according to the method described in Heasley et al., p. 545, 1992, Mol. Biol. Cell, Vol. 3.
COS cells were prepared using the method described in Example 3. […] FPLC MONO Q ion-exchange column fractions were prepared as described in Example 3 and assayed for MAPK activity according to the method described in Heasley et al., ibid.

[2] = fraction 22, 0.15 μg catalytically inactive MEK-1

B1: MEKK 1: MEK kinase 1 protein, SEQ ID No. 2 / 4 (protein)
chain: MVTAVPAVFSKLVTMLNASGSTHFTRMRRRLMAIADEVEIAEVIQLGVEDTVDGHQDSLQAVAPTSCLENSSLEHTVHREKTGKGLSATRLSASSEDISDRLAGVSVGLPSSTTTEQPKPAVQTKGRPHSQCLNSSPLSHAQLMFPAPSAPCSSAPSVPDISKHRPQAFVPCKIPSASPQTQRKFSLQFQRNCSEHRDSDQLSPVFTQSRPPPSSNIHRPKPSRPVPGSTSKLGDATKSSMTLDLGSASRCDDSFGGGGNSGNAVIPSDETVFTPVEDKCRLDVNTELNSSIEDLLEASMPSSDTTVTFKSEVAVLSPEKAENDDTYKDDVNHNQKCKEKMEAEEEEALAIAMAMSASQDALPIVPQLQVENGEDIIIIQQDTPETLPGHTKAKQPYREDAEWLKGQQIGLGAFSSCYQAQDVGTGTLMAVKQVTYVRNTSSEQEEVVEALREEIRMMGHLNHPNIIRMLGATCEKSNYNLFIEWMAGGSVAHLLSKYGAFKESVVINYTEQLLRGLSYLHENQIIHRDVKGANLLIDSTGQRLRIADFGAAARLASKGTGAGEFQGQLLGTIAFMAPEVLRGQQYGRSCDVWSVGCAIIEMACAKPPWNAEKHSNHLALIFKIASATTAPSIPSHLSPGLRDVAVRCLELQPQDRPPSRELLKHPVFRTTW
- binding to GST-Ras^V12(GTPγS) relative to GST-Ras^V12(GDP) (GST-Ras^V12): at least 5 fold
- binding to GST-Ras^V12 (in words) (GST-Ras^V12): capable of binding GST-Ras^V12 in a GTP dependent manner
- phosphorylation of p42 and p44 MAPK [1]: does induce phosphorylation of p42 and p44 MAPK
- phosphorylation of MEK-1 (MEK-1; Mono Q fractions of transfected COS cells): capable of phosphorylating MEK-1
- time at which phosphorylation of kinase MEK-1 and MEKK was visible (MEK-1; [2]): 5 min
- time of maximal phosphorylation of kinase MEK-1 and MEKK (MEK-1; [2]): about 20 minutes
- phosphorylation of p38 MAPK (p38 MAPK): only induces weak phosphorylation of p38 MAPK
- MAPK activity relative to control cells transfected with plasmid lacking a MEKK 1 cDNA insert (MAPK): four to five times greater
